Our source for the Kd values is paper PMC3808539 (2013).

Numbering of substitutions follows the chain as printed. In names and notes the source's numbering stands. Ends that are not written are not given here.

For assay [1], the target named is peptide having an Ala-Tyr-Ala C terminus. The experiment in a line: ITC; peptide ….
Assay [2] addresses T1, FMLLRRKAYV (Bacillus subtilis).
T1 chain: FMLLRRKAYV-OH
Kind of assay: ITC.

The target in assay [3] is peptide having an Ala-Tyr-Ala C terminus. The experiment in a line: ITC.

B1: isolated PDZ domain of CtpB (domain or fragment)
chain: SVYMDKQTAKQFSDSLDSSFEGIGAEVGMEDGKIIIVSPFKKSPAEKAGLKPNDEIISINGESMAGKDLNHAVLKIRGKKGSSVSMKIQRP
As for B1, the Kd in assay [1] came out at 2.3 µM; in assay [2] it was 0.9 µM.

B2: CtpB R168F (enzyme)
chain: MADSERDKAMDKIEKAYELISNEYVEKVDREKLLEGAIQGMLSTLNDPYSVYMDKQTAKQFSDSLDSSFEGIGAEVGMEDGKIIIVSPFKKSPAEKAGLKPNDEIISINGESMAGKDLNHAVLKIFGKKGSSVSMKIQRPGTKKQLSFRIKRAEIPLETVFASEKKVQGHSVGYIAISTFSEHTAEDFAKALRELEKKEIEGLVIDVRGNPGGYLQSVEEILKHFVTKDQPYIQIAERNGDKKRYFSTLTHKKAYPVNVITDKGSASASEILAGALKEAGHYDVVGDTSFGKGTVQQAVPMGDGSNIKLTLYKWLTPNGNWIHKKGIEPTIAIKQPDYFSAGPLQLKEPLKVDMNNEDVKHAQVLLKGLSFDPGREDGYFSKDMKKAVMAFQDQNKLNKTGVIDTRTAETLNQQIEKKKSDEKNDLQLQTALKSLFVNLEHHHHHH
In assay [3], B2 returned a Kd of 40 µM.

B3: CtpB S309A, proteolytically inactive mutant (enzyme)
chain: B2 chain with F126R, A185T, L215I, S267A, V402I
Regarding B3, the affinity in assay [1], expressed as Kd, was 6.5 µM.

B4: CtpB R168A (enzyme)
chain: B2 chain with F126A
As for B4, the Kd in assay [3] worked out at 21 µM.
